According to patent publication US20110172153A1:

What was measured:
[1] = molecular target: rat parathyroid hormone receptor (PTHR) (UniProt P25961); experiment: competition binding; R0 conformation
[2] = molecular target: rat parathyroid hormone receptor (PTHR) (UniProt P25961); experiment: competition binding; RG conformation

Sequence of rat parathyroid hormone receptor (PTHR) (P25961 27-591): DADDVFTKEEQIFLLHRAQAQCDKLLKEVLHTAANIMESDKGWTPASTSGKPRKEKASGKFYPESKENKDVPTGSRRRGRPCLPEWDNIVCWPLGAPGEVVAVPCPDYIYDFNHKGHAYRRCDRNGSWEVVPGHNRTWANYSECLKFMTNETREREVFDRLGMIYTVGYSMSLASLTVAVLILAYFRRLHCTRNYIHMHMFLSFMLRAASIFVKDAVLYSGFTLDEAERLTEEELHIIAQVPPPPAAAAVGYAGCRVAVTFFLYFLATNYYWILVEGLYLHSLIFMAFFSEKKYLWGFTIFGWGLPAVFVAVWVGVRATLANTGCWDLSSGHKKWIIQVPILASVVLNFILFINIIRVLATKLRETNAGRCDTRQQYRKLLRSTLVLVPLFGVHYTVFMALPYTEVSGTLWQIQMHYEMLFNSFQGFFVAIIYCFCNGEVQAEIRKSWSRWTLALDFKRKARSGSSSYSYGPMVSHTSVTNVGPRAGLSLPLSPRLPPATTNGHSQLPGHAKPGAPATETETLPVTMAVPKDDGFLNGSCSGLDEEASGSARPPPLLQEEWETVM

| Substance | IC50 [1] [nM] | IC50 [2] [nM] |
| --- | --- | --- |
| hPTHrP(1-36) | 20 | 0.44 |
| [E^19],Mc-hPTH(1-34)OH | 2.33 | 0.57 |
| Mc-PTH(1-18)/PTHrP(19-36)OH | 1.4 | 0.82 |
| Mc-hPTH(1-34)OH | 1.9 | 0.56 |
| H5,Mc-hPTH(1-34)OH | 26 | 0.32 |
| H5,E19,Mc-hPTH(1-14)/rP(15-36)OH | 197 | 4.8 |

The remaining substances from weak to strong by IC50 [1], led by results:

| IC50 [1] [nM] | IC50 [2] [nM] | Substance |
| --- | --- | --- |
| 1390 | 1.41 | H5,E19,Mc-hPTH(1-34)OH |
| 20.3 | 0.49 | [A^23,E^19],Mc-hPTH(1-34)OH |
| 9 | 1.7 | H5,Mc-hPTH(1-14)/rP(15-36)OH |
| 2.3 | 1.02 | [I^5]-PTHrP(1-36) |
| 1.8 | 0.73 | Mc-PTH(1-11)/PTHrP(12-36)OH |
| 1.3 | 0.81 | Mc-PTH(1-14)/PTHrP(15-36)OH |
